Columns and labels:
人CD47抗原蛋白 = target: T1, 人CD47抗原蛋白 (human, UniProt Q08722 19-139, limits assumed); experiment: SPR (Biacore 3000), antibody captured by anti-human Fc on CM5 chip, CD47 antigen 200-3.125 nM as analyte
T1 construct: The construct is not described; also called CD47蛋白

U937细胞表面的CD47 = target: T2, U937细胞表面的CD47 (human, UniProt Q08722 19-323); experiment: flow cytometry on U937 cells, blocking of FITC-SIRPα (100 ng/mL) binding to cell-surface CD47; antibody 0.03-50 μg/mL
T2 construct: whole, on cells; also called CD47 on U937 cells
T2 sequence (Q08722 19-323): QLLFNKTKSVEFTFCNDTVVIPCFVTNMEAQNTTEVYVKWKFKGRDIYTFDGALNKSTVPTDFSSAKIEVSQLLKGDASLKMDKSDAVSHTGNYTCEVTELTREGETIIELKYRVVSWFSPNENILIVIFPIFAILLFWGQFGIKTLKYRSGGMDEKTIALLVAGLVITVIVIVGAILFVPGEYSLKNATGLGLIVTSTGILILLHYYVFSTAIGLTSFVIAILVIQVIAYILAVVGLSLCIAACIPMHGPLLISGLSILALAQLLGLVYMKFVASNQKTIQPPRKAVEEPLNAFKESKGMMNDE

T1 sequence (Q08722 19-139 limits assumed): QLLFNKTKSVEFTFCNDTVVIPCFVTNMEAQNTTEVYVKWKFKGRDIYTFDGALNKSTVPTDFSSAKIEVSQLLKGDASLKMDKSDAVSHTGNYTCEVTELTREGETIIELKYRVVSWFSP

Kd (人CD47抗原蛋白): 0.0934 nM | koff (人CD47抗原蛋白): 3.84e-05 s⁻¹ | kon (人CD47抗原蛋白): 411000 M⁻¹ s⁻¹ | IC50 (U937细胞表面的CD47): 1.37 µg/mL
B1: 对照抗体W3452-1.164.16-z11 (antibody, V domains shown)
VH: QVQLQESGPGLVKPSETLSLTCTVSGFSLTNYHVYWIRQPPGKGLEWIGVMWNHGDTSYNSPLKSRVTISVDTSKSQFSLKLSSVTAADTAVYYCARGGYVPDYWGQGTMVTVSS
VL: DIVMTQSPLSLPVTPGEPASISCRSSQSLVHSNAKTYLHWYLQKPGQSPQLLIYRVSNRFSGVPDRFSGSGSGTDFTLKISRVEAEDVGVYYCLQTTHFPYTFGQGTKLEIK
